Results published in article PMC10397247.
Blank lines part the entries; values can stand above or below the binder they belong to.

Experiments:
[1] = target: T1, P5SC1; assay: two-hybrid library CC1; details: mean of both orientations;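 also: natural log of median RNA to DNA barcode read ratio; higher means stronger binding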
T1 chain: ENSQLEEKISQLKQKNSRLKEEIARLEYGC

[2] = target: T2, P7mS; assay: two-hybrid library CC1; details: mean of both orientations;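 also: natural log of median RNA to DNA barcode read ratio; higher means stronger binding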
T2 chain: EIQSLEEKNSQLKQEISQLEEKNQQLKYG

[3] = target: T3, P8mS; assay: two-hybrid library CC1; details: mean of both orientations;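 also: natural log of median RNA to DNA barcode read ratio; higher means stronger binding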
T3 chain: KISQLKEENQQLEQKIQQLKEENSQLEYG

[4] = target: T4, P9; assay: two-hybrid library CC1; details: mean of both orientations;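 also: natural log of median RNA to DNA barcode read ratio; higher means stronger binding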
T4 chain: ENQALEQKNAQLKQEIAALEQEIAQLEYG

[5] = target: T5, P7; assay: two-hybrid library CC1; details: mean of both orientations;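 also: natural log of median RNA to DNA barcode read ratio; higher means stronger binding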
T5 chain: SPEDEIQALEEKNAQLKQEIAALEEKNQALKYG

[6] = target: T6, P3; assay: two-hybrid library CC1;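 also: natural log of median RNA to DNA barcode read ratio; higher means stronger binding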
T6 chain: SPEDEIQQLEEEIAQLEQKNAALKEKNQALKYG

[7] = target: T7, P5SC2; assay: two-hybrid library CC1; details: mean of both orientations
T7 chain: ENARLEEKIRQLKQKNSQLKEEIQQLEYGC

[8] = target: T8, P6SC2; assay: two-hybrid library CC1; details: mean of both orientations
T8 chain: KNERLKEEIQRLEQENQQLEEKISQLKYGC

[9] = target: T9, P4; assay: two-hybrid library CC1; details: mean of both orientations
T9 chain: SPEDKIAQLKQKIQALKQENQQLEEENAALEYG

[10] = target: T10, P6SC1; assay: two-hybrid library CC1; details: mean of both orientations
T10 chain: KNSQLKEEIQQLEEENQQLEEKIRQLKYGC

[11] = target: T11, P5; assay: two-hybrid library CC1; details: mean of both orientations
T11 chain: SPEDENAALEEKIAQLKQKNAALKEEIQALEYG

[12] = target: T12, P4mS; assay: two-hybrid library CC1; details: mean of both orientations
T12 chain: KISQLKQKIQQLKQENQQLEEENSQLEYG

[13] = target: T13, P6mS; assay: two-hybrid library CC1; details: mean of both orientations
T13 chain: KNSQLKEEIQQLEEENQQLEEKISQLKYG

[14] = target: T14, P3mS; assay: two-hybrid library CC1; details: mean of both orientations
T14 chain: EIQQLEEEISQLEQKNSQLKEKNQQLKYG

[15] = target: T15, P5mS; assay: two-hybrid library CC1; details: mean of both orientations
T15 chain: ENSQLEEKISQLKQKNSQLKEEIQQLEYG

[16] = target: T16, P8; assay: two-hybrid library CC1; details: mean of both orientations
T16 chain: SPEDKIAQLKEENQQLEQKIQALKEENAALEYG

[17] = target: T17, P6; assay: two-hybrid library CC1; details: mean of both orientations
T17 chain: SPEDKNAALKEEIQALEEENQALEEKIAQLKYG

[18] = target: T18, 4H2619-bH; assay: two-hybrid library CCNG1
T18 chain: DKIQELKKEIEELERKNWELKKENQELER

[19] = target: T19, 4H470-bH; assay: two-hybrid library CCNG1
T19 chain: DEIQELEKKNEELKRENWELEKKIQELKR

[20] = target: T20, 4H3907-bH; assay: two-hybrid library CCNG1
T20 chain: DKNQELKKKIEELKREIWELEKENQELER

[21] = target: T21, 4H2568-bH; assay: two-hybrid library CCNG1
T21 chain: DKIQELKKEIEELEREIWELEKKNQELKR

[22] = target: T22, 4H2745-bH; assay: two-hybrid library CCNG1
T22 chain: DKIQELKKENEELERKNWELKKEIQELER

[23] = target: T23, 4H3961-bH; assay: two-hybrid library CCNG1
T23 chain: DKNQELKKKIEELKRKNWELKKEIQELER

[24] = target: T24, 4H344-bH; assay: two-hybrid library CCNG1
T24 chain: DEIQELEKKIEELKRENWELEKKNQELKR

[25] = target: T25, 4H363-bH; assay: two-hybrid library CCNG1
T25 chain: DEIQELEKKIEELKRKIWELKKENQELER

[26] = target: T26, 4H3189-bA; assay: two-hybrid library CCNG1
T26 chain: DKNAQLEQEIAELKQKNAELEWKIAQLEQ

[27] = target: T27, O4-bN; assay: two-hybrid library CCNG1
T27 chain: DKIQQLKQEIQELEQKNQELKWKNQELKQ

[28] = target: T28, O2-bN; assay: two-hybrid library CCNG1
T28 chain: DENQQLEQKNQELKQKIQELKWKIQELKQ

[29] = target: T29, O3-bN; assay: two-hybrid library CCNG1
T29 chain: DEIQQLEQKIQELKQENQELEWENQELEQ

[30] = target: T30, O7-bN; assay: two-hybrid library CCNG1
T30 chain: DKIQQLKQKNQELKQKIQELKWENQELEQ

[31] = target: T31, O5-bN; assay: two-hybrid library CCNG1
T31 chain: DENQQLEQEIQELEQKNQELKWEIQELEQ

[32] = target: T32, O13-bN; assay: two-hybrid library CCNG1
T32 chain: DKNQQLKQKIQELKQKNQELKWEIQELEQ

[33] = target: T33, O15-bN; assay: two-hybrid library CCNG1
T33 chain: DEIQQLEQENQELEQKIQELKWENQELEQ

[34] = target: T34, O9-bN; assay: two-hybrid library CCNG1
T34 chain: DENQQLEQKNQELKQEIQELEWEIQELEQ

[35] = target: T35, O8-bN; assay: two-hybrid library CCNG1
T35 chain: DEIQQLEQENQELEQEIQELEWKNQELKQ

[36] = target: T36, O14-bN; assay: two-hybrid library CCNG1
T36 chain: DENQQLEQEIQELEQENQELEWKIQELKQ

[37] = target: T37, O16-bN; assay: two-hybrid library CCNG1
T37 chain: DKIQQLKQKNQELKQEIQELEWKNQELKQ

[38] = target: T38, O12-bN; assay: two-hybrid library CCNG1
T38 chain: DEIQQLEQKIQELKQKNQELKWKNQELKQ

[39] = target: T39, O6-bN; assay: two-hybrid library CCNG1
T39 chain: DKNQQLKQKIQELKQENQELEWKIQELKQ

Binder: SPEDEIQQLEEEIAQLEQKNAALKEKNQALKYG [P3]
interaction score [1]: -2.58 | interaction score [2]: -2.58 | interaction score [3]: -2.7 | interaction score [4]: -2.09 | interaction score [5]: -2.61 | interaction score [6]: -2.65 | interaction score [7]: -2.4 | interaction score [8]: -2.04 | interaction score [9]: 0.154 | interaction score [10]: -2.57 | interaction score [11]: -2.66 | interaction score [12]: 0.336 | interaction score [13]: -2.79 | interaction score [14]: -2.89 | interaction score [15]: -2.66 | interaction score [16]: -2.6 | interaction score [17]: -2.59

interaction score [18]: 1.65 | interaction score [19]: -1.26 | interaction score [20]: 1.31 | interaction score [21]: 2.17 | interaction score [22]: -0.189 | interaction score [23]: 2.42 | interaction score [24]: 0.802 | interaction score [25]: 1.72 | interaction score [26]: 0.615
Binder: DKIQELKKEIEELEREIWELEKKNQELKR [4H2568-bH]

interaction score [27]: -0.33 | interaction score [28]: -0.846 | interaction score [29]: 0.565 | interaction score [30]: -0.201 | interaction score [31]: -2.82 | interaction score [32]: -0.316 | interaction score [33]: -0.511 | interaction score [34]: -0.349 | interaction score [35]: 0.0745 | interaction score [36]: -0.704 | interaction score [37]: -0.487 | interaction score [38]: -0.0253 | interaction score [39]: 0.155
Binder: DEIQQLEQKIQELKQKNQELKWKNQELKQ [O12-bN]
